Laboratory results from article PMC6021441, “Structural basis of the correct subunit assembly, aggregation, and intracellular degradation of nylon hydrolase” (Scientific Reports, 2018).

Legend:
Test in all cases: crystal structure; sitting-drop vapor diffusion, ammonium sulfate, 0.1 M HEPES pH 7.5, 0.2 M NaCl, 25% glycerol; space group C222_(1), two molecules (A/B dimer) in the asymmetric unit, tetramer by the crystallographic two-fold axis
Conditions in all cases: both partners purified
[1] = target: T1, NylCp2 alpha subunit (27 kDa), wild type (Arthrobacter, UniProt Q79F77 1-266)
T1 construct: NylCp2, alpha subunit made by autocleavage of the 355-residue precursor between Asn266 and Thr267; also called α subunit; source: E. coli JM109, purified with the beta subunit as the active enzyme
T1 sequence (looked up): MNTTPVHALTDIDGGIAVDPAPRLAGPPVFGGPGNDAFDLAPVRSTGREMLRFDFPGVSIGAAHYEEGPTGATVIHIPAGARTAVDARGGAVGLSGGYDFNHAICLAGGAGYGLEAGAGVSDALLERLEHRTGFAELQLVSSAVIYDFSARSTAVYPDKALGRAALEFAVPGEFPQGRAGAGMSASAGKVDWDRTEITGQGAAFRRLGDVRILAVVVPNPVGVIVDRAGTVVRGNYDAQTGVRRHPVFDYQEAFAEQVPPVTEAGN

[2] = target: T2, NylCp2-G^122 alpha subunit (D122G) (Arthrobacter, UniProt Q79F77 1-266, D122G)
T2 construct: NylCp2 alpha subunit with D122G; also called α subunit of NylCp2-G^122; source: E. coli JM109, purified with the beta subunit as the active enzyme
T2 sequence (looked up): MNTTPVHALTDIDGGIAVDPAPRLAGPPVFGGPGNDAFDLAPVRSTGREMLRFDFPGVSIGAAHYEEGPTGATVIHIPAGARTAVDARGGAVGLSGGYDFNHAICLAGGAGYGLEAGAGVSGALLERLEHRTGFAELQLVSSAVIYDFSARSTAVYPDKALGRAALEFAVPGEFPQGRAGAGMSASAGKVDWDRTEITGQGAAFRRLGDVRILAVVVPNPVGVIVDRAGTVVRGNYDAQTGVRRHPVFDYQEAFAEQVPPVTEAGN

[3] = target: T3, NylCp2-R^122 alpha subunit (D122R) (Arthrobacter, UniProt Q79F77 1-266, D122R)
T3 construct: NylCp2 alpha subunit with D122R; also called α subunit of NylCp2-R^122; source: E. coli JM109, purified with the beta subunit as the active enzyme
T3 sequence (looked up): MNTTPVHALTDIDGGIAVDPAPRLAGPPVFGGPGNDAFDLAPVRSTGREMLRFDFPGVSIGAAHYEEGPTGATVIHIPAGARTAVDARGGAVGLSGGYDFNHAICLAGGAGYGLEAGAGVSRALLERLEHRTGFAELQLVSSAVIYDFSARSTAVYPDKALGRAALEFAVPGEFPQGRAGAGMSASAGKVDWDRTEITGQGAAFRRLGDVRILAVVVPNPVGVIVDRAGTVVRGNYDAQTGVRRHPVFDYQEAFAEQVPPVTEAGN

[4] = target: T4, NylCp2-V^122 alpha subunit (D122V) (Arthrobacter, UniProt Q79F77 1-266, D122V)
T4 construct: NylCp2 alpha subunit with D122V; also called α subunit of NylCp2-V^122; source: E. coli JM109, purified with the beta subunit as the active enzyme
T4 sequence (looked up): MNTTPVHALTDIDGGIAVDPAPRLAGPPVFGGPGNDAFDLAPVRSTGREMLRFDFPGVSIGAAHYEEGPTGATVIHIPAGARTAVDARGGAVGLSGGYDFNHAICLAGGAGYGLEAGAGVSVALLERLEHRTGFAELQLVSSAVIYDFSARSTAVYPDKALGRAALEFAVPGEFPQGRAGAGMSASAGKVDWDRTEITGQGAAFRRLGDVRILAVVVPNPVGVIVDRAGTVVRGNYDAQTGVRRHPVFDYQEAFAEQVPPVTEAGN

[5] = target: T5, NylCp2-Y^130 alpha subunit (H130Y) (Arthrobacter, UniProt Q79F77 1-266, H130Y)
T5 construct: NylCp2 alpha subunit with H130Y; also called α subunit of NylCp2-Y^130; source: E. coli JM109, purified with the beta subunit as the active enzyme
T5 sequence (looked up): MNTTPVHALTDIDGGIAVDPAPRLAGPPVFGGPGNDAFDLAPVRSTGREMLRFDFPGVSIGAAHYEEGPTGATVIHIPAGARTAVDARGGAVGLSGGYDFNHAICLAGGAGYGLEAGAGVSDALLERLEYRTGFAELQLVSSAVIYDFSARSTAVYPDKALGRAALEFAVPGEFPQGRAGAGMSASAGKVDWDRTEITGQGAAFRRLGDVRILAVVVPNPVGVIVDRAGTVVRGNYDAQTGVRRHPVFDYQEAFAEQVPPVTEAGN

[6] = target: T6, NylCp2-G^122Y^130 alpha subunit (D122G/H130Y) (Arthrobacter, UniProt Q79F77 1-266, D122G | H130Y)
T6 construct: NylCp2 alpha subunit with D122G and H130Y; also called α subunit of NylCp2-G^122Y^130; source: E. coli JM109, purified with the beta subunit as the active enzyme
T6 sequence (looked up): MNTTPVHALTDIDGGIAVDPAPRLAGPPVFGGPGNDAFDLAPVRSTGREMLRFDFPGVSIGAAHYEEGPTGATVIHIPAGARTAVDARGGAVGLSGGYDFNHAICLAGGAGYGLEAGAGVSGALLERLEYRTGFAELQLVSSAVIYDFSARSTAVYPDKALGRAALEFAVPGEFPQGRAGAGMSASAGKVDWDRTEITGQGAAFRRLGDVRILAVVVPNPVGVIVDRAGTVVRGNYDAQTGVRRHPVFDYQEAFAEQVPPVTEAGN

binding result [1]: binds
binding result [2]: binds
binding result [3]: binds
binding result [4]: binds
binding result [5]: binds
binding result [6]: binds
B1: NylCp2 beta subunit (9 kDa) (domain or fragment, Arthrobacter, UniProt Q79F77 267-355, looked up)
chain: TTISAIVTNVRMSPVELNQFAKQVHSSMHRGIQPFHTDMDGDTLFAVTTDEIDLPTTPGSSRGRLSVNATALGAIASEVMWDAVLEAGK
notes: NylCp2, beta subunit made by autocleavage of the 355-residue precursor between Asn266 and Thr267; the same in the wild type and in the mutants crystallised here (all their substitutions lie in the alpha subunit); also called β subunit; source: E. coli JM109, purified with the alpha subunit as the active enzyme
